Laboratory results taken from article PMC4735607, “Reversal of axonal growth defects in an extraocular fibrosis model by engineering the kinesin–microtubule interface” (Nature Communications, 2016).
Numbering of substitutions follows the chain as printed. In names and notes the source's numbering stands.

Columns and labels:
Conditions in all cases: both partners purified
[1] = biological target: T1, WT microtubules of recombinant human TUBA1B (K40R, treated as WT) and TUBB3 tubulin (human, UniProt P68363-1 1-451; Q13509-1 1-450, K40R); experiment: co-sedimentation; nucleotide-free state: 0.1 µM BG-549-labelled HK349 with varying concentrations of MTs; x2 MA buffer, 1 mg/ml casein, 40 µM taxol, 1 U/ml apyrase; fraction of HK349 in the MT pellet against total MT concentration fitted to a hyperbola
T1 construct: beta3-tubulin TUBB3, Homo sapiens, NP_006077; Polymer of alpha/beta heterodimers, taxol-stabilised; Each tag is joined through a GGSGG linker; also called WT MT; WT MTs; source: HighFive insect cells (baculovirus), purified (DEAE Sepharose, TALON, anti-FLAG resin), polymerized with taxol
T1 sequence (P68363 whole entry K40R, chain 1 of 2): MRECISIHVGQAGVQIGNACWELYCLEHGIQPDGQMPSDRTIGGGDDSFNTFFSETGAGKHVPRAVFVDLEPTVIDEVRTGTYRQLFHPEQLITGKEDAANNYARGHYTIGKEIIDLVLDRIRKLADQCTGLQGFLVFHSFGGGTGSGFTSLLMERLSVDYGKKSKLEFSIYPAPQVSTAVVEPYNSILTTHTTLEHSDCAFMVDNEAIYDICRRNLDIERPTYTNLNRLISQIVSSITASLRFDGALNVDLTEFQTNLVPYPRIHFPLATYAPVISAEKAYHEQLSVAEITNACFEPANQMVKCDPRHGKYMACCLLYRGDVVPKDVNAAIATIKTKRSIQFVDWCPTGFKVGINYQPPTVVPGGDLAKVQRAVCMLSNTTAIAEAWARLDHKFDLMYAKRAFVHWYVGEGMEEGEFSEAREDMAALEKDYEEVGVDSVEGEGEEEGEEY
T1 sequence (Q13509 whole entry, chain 2 of 2): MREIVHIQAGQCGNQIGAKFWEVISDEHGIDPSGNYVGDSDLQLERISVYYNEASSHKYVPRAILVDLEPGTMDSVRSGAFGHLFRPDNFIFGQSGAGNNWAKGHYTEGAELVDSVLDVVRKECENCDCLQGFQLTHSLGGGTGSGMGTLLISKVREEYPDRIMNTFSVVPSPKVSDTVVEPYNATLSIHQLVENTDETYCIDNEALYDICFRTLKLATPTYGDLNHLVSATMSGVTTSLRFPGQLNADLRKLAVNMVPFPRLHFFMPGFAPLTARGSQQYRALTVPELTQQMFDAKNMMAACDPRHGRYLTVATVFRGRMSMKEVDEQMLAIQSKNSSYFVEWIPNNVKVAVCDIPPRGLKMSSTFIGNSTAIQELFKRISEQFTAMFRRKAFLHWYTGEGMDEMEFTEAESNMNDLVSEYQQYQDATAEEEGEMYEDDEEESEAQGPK

[2] = biological target: T2, beta-R262A microtubules of recombinant human TUBA1B (K40R) and TUBB3 R262A tubulin (human, UniProt P68363-1 1-451; Q13509-1 1-450, K40R | R262A); experiment: as above
T2 construct: beta3-tubulin TUBB3, Homo sapiens, NP_006077, with R262A; Polymer of alpha/beta heterodimers, taxol-stabilised; Each tag is joined through a GGSGG linker; also called β-R262A; R262A MT; source: HighFive insect cells (baculovirus), purified (DEAE Sepharose, TALON, anti-FLAG resin), polymerized with taxol
T2 sequence (P68363 whole entry K40R, chain 1 of 2): as the sequence (P68363 whole entry K40R, chain 1 of 2) above
T2 sequence (Q13509 whole entry R262A, chain 2 of 2): as the sequence (Q13509 whole entry, chain 2 of 2) above, with R262A counted along it

[3] = biological target: T1, WT microtubules of recombinant human …; experiment: co-sedimentation; ADP state: 0.1 µM BG-549-labelled HK349 with varying concentrations of MTs; x2 MA buffer, 1 mg/ml casein, 40 µM taxol, 1 mM ADP and 1 U/ml hexokinase; fraction of HK349 in the MT pellet against total MT concentration fitted to a hyperbola
[4] = biological target: T2, beta-R262A microtubules of recombinant …; experiment: as above
[5] = biological target: T1, WT microtubules of recombinant human …; experiment: co-sedimentation; AMPPNP state: 0.1 µM BG-549-labelled HK349 with varying concentrations of MTs; x2 MA buffer, 1 mg/ml casein, 40 µM taxol, 1 mM AMPPNP and 1 U/ml apyrase; fraction of HK349 in the MT pellet against total MT concentration fitted to a hyperbola
[6] = biological target: T2, beta-R262A microtubules of recombinant …; experiment: as above

B1: WT KIF5B, single-headed (monomeric) construct HK349 (K349-SNAP-His) (domain or fragment, human, UniProt P33176 1-349, looked up)
chain: MADLAECNIKVMCRFRPLNESEVNRGDKYIAKFQGEDTVVIASKPYAFDRVFQSSTSQEQVYNDCAKKIVKDVLEGYNGTIFAYGQTSSGKTHTMEGKLHDPEGMGIIPRIVQDIFNYIYSMDENLEFHIKVSYFEIYLDKIRDLLDVSKTNLSVHEDKNRVPYVKGCTERFVCSPDEVMDTIDEGKSNRHVAVTNMNEHSSRSHSIFLINVKQENTQTEQKLSGKLYLVDLAGSEKVSKTGAEGAVLDEAKNINKSLSALGNVISALAEGSTYVPYRDSKMTRILQDSLGGNCRTTIVICCSPSSYNESETKSTLLFGQRAKTIKNTVCVNVELTAEQWKKKYEKEKE
modifications: fluorescent dye BG-549 (SNAP-surface 549) on the SNAP tag
notes: kinesin heavy chain KIF5B, human, residues 1-349; also called minimal motor; not shown: SNAP tag, C-terminal, kept
Kd [1]: 12 nM
Kd [2]: 860 nM
Kd [3]: 6500 nM
Kd [4]: 36000 nM
Kd [5]: 29 nM
Kd [6]: 2500 nM

B2: D279R KIF5B, single-headed (monomeric) construct HK349 (domain or fragment, human, UniProt P33176 1-349, looked up)
chain: B1 chain with D279R
modifications: fluorescent dye BG-549 (SNAP-surface 549) on the SNAP tag
notes: kinesin heavy chain KIF5B, human, residues 1-349, with D279R in the L12 loop; also called HK349 D279R; not shown: SNAP tag, C-terminal, kept
Kd [1]: 12 nM
Kd [2]: 120 nM
Kd [3]: 12000 nM
Kd [4]: 14000 nM
Kd [5]: 10 nM
Kd [6]: 50 nM
